This experiment concerns the target Amyloid Beta (antigen of the Amyloid Beta ELISA) (UniProt P05067 672-713, limits assumed). The experiment in a line: Amyloid Beta ELISA, purified antibodies.

Amyloid Beta (antigen of the Amyloid Beta ELISA), sequence (P05067 672-713 limits assumed): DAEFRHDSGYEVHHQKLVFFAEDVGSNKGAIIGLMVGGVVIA

B1: humanized antibody C2 HuVH2/HuVK3 (antibody, V domains shown)
VH: EVQLVESGGGLVQPGGSLRLSCAASGFTFSSYGMSWVRQAPGKGLEWVASINSNGGSTYYPDSVKGRFTISRDNAKNSLYLQMNSLRAEDTAVYYCASGDYWGQGTTVTVSS
VL: DIVMTQSPLSLPVTPGEPASISCRSSQSLVYSNGDTYLHWYLQKPGQSPKLLIYKVSNRFSGVPDRFSGSGSGTDFTLKISRVEAEDVGVYYCSQSTHVPWTFGQGTKVEIKR
Take B1: the “fold reduction of binding activity against the chimeric control antibody C2 ChVHAF/ChVK” value was around 2 fold.
